This test deals with T1, human calcitonin receptor (human, UniProt P30988 25-474).
T1 construct: whole, on cells; also called hCTR; hCT
T1 sequence (looked up): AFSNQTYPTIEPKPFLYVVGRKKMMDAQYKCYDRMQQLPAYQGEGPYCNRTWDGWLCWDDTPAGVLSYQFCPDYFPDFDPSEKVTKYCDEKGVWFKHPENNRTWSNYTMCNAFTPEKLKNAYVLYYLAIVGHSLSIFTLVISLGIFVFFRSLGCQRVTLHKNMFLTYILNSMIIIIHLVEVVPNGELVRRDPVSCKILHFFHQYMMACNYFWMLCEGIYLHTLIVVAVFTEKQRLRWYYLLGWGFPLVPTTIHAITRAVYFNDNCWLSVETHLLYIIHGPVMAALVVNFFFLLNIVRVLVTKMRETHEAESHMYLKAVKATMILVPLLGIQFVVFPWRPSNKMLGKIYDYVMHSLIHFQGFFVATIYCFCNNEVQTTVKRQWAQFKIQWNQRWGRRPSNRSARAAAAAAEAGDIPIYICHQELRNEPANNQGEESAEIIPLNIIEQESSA
Briefly: SPA competition with 125I-calcitonin, membranes of BHK hCTR cells (Assay VII). In a few lines: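 BHK hCTR membranes 35 ng/μL + SPA beads 0.05 mg/well; buffer 50 mM Hepes pH 7.4, 1 mM CaCl2, 5 mM MgCl₂, 0.1% OA, 0.02% Tween20. 120 min, 25° C., shaking. Scintillation count; IC50 by one-site binding competition.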

Numbered stars: 1 amine (or outer) side, 2 acyl side, 3 side chain; on linkers, the order of the positions; unused ones are H or OH. Bridge positions count the residues as written; N and C are the ends. Side chains are listed from the residue outwards. Ends that are not written are not given here. * marks the point of attachment. C20 diacid = O=C(O)CCCCCCCCCCCCCCCCCCC(=O)*; γGlu = O=C(O)[C@H](CCC(=O)[*:2])N[*:1]; AEEA = NCCOCCOCC(=O)O

B1: N^ε1-[2-[2-[2-[[(4S)-4-carboxy-4-(19-carboxynonadecanoylamino)butanoyl]amino]ethoxy]ethoxy]acetyl]-[Arg17,Pro21,Pro27,Pro29,Pro34]-h-amylin (peptide)
peptide: K([AEEA-γGlu-C20 diacid])CNTATCATQRLANFLRHSSPNFGAIPSPTNVGPNTY-NH2
modifications: disulfide 2-7; N-terminus assumed
SMILES: CC[C@H](C)[C@H](NC(=O)[C@H](C)NC(=O)CNC(=O)[C@H](Cc1ccccc1)NC(=O)[C@H](CC(N)=O)NC(=O)[C@@H]1CCCN1C(=O)[C@H](CO)NC(=O)[C@H](CO)NC(=O)[C@H](Cc1c[nH]cn1)NC(=O)[C@H](CCCNC(=N)N)NC(=O)[C@H](CC(C)C)NC(=O)[C@H](Cc1ccccc1)NC(=O)[C@H](CC(N)=O)NC(=O)[C@H](C)NC(=O)[C@H](CC(C)C)NC(=O)[C@H](CCCNC(=N)N)NC(=O)[C@H](CCC(N)=O)NC(=O)[C@@H](NC(=O)[C@H](C)NC(=O)[C@@H]1CSSC[C@H](NC(=O)[C@@H](N)CCCCNC(=O)COCCOCCNC(=O)CC[C@H](NC(=O)CCCCCCCCCCCCCCCCCCC(=O)O)C(=O)O)C(=O)N[C@@H](CC(N)=O)C(=O)N[C@@H]([C@@H](C)O)C(=O)N[C@@H](C)C(=O)N[C@@H]([C@@H](C)O)C(=O)N1)[C@@H](C)O)C(=O)N1CCC[C@H]1C(=O)N[C@@H](CO)C(=O)N1CCC[C@H]1C(=O)N[C@H](C(=O)N[C@@H](CC(N)=O)C(=O)N[C@H](C(=O)NCC(=O)N1CCC[C@H]1C(=O)N[C@@H](CC(N)=O)C(=O)N[C@H](C(=O)N[C@@H](Cc1ccc(O)cc1)C(N)=O)[C@@H](C)O)C(C)C)[C@@H](C)O
notes: also called compound 56
For the molecule B1, the IC50 is 2.09 nM.

B2: N^ε1-[2-[2-[2-[[(4S)-4-carboxy-4-(19-carboxynonadecanoylamino)butanoyl]amino]ethoxy]ethoxy]acetyl]-[Arg17,Pro21,Pro27,Pro34]-h-amylin (peptide)
peptide: K([AEEA-γGlu-C20 diacid])CNTATCATQRLANFLRHSSPNFGAIPSSTNVGPNTY-NH2
modifications: disulfide 2-7; N-terminus assumed
SMILES: CC[C@H](C)[C@H](NC(=O)[C@H](C)NC(=O)CNC(=O)[C@H](Cc1ccccc1)NC(=O)[C@H](CC(N)=O)NC(=O)[C@@H]1CCCN1C(=O)[C@H](CO)NC(=O)[C@H](CO)NC(=O)[C@H](Cc1c[nH]cn1)NC(=O)[C@H](CCCNC(=N)N)NC(=O)[C@H](CC(C)C)NC(=O)[C@H](Cc1ccccc1)NC(=O)[C@H](CC(N)=O)NC(=O)[C@H](C)NC(=O)[C@H](CC(C)C)NC(=O)[C@H](CCCNC(=N)N)NC(=O)[C@H](CCC(N)=O)NC(=O)[C@@H](NC(=O)[C@H](C)NC(=O)[C@@H]1CSSC[C@H](NC(=O)[C@@H](N)CCCCNC(=O)COCCOCCNC(=O)CC[C@H](NC(=O)CCCCCCCCCCCCCCCCCCC(=O)O)C(=O)O)C(=O)N[C@@H](CC(N)=O)C(=O)N[C@@H]([C@@H](C)O)C(=O)N[C@@H](C)C(=O)N[C@@H]([C@@H](C)O)C(=O)N1)[C@@H](C)O)C(=O)N1CCC[C@H]1C(=O)N[C@@H](CO)C(=O)N[C@@H](CO)C(=O)N[C@H](C(=O)N[C@@H](CC(N)=O)C(=O)N[C@H](C(=O)NCC(=O)N1CCC[C@H]1C(=O)N[C@@H](CC(N)=O)C(=O)N[C@H](C(=O)N[C@@H](Cc1ccc(O)cc1)C(N)=O)[C@@H](C)O)C(C)C)[C@@H](C)O
notes: also called compound 50
Consider B2, for which the IC50 came to 1.38 nM.

B3: N^ε1-[2-[2-[2-[[(4S)-4-carboxy-4-(19-carboxynonadecanoylamino)butanoyl]amino]ethoxy]ethoxy]acetyl]-[Gly14,Arg17,Pro21,Pro27,Pro31]-h-amylin (peptide)
peptide: K([AEEA-γGlu-C20 diacid])CNTATCATQRLAGFLRHSSPNFGAIPSSTPVGSNTY-NH2
modifications: disulfide 2-7; N-terminus assumed
SMILES: CC[C@H](C)[C@H](NC(=O)[C@H](C)NC(=O)CNC(=O)[C@H](Cc1ccccc1)NC(=O)[C@H](CC(N)=O)NC(=O)[C@@H]1CCCN1C(=O)[C@H](CO)NC(=O)[C@H](CO)NC(=O)[C@H](Cc1c[nH]cn1)NC(=O)[C@H](CCCNC(=N)N)NC(=O)[C@H](CC(C)C)NC(=O)[C@H](Cc1ccccc1)NC(=O)CNC(=O)[C@H](C)NC(=O)[C@H](CC(C)C)NC(=O)[C@H](CCCNC(=N)N)NC(=O)[C@H](CCC(N)=O)NC(=O)[C@@H](NC(=O)[C@H](C)NC(=O)[C@@H]1CSSC[C@H](NC(=O)[C@@H](N)CCCCNC(=O)COCCOCCNC(=O)CC[C@H](NC(=O)CCCCCCCCCCCCCCCCCCC(=O)O)C(=O)O)C(=O)N[C@@H](CC(N)=O)C(=O)N[C@@H]([C@@H](C)O)C(=O)N[C@@H](C)C(=O)N[C@@H]([C@@H](C)O)C(=O)N1)[C@@H](C)O)C(=O)N1CCC[C@H]1C(=O)N[C@@H](CO)C(=O)N[C@@H](CO)C(=O)N[C@H](C(=O)N1CCC[C@H]1C(=O)N[C@H](C(=O)NCC(=O)N[C@@H](CO)C(=O)N[C@@H](CC(N)=O)C(=O)N[C@H](C(=O)N[C@@H](Cc1ccc(O)cc1)C(N)=O)[C@@H](C)O)C(C)C)[C@@H](C)O
notes: also called compound 71
As to B3, the IC50 worked out at 1.53 nM.

B4: N^ε1-[2-[2-[2-[[(4S)-4-carboxy-4-(19-carboxynonadecanoylamino)butanoyl]amino]ethoxy]ethoxy]acetyl]-[Arg17,Pro21,Pro27,Pro31,His35]-h-amylin (peptide)
peptide: K([AEEA-γGlu-C20 diacid])CNTATCATQRLANFLRHSSPNFGAIPSSTPVGSHTY-NH2
modifications: disulfide 2-7; N-terminus assumed
SMILES: CC[C@H](C)[C@H](NC(=O)[C@H](C)NC(=O)CNC(=O)[C@H](Cc1ccccc1)NC(=O)[C@H](CC(N)=O)NC(=O)[C@@H]1CCCN1C(=O)[C@H](CO)NC(=O)[C@H](CO)NC(=O)[C@H](Cc1c[nH]cn1)NC(=O)[C@H](CCCNC(=N)N)NC(=O)[C@H](CC(C)C)NC(=O)[C@H](Cc1ccccc1)NC(=O)[C@H](CC(N)=O)NC(=O)[C@H](C)NC(=O)[C@H](CC(C)C)NC(=O)[C@H](CCCNC(=N)N)NC(=O)[C@H](CCC(N)=O)NC(=O)[C@@H](NC(=O)[C@H](C)NC(=O)[C@@H]1CSSC[C@H](NC(=O)[C@@H](N)CCCCNC(=O)COCCOCCNC(=O)CC[C@H](NC(=O)CCCCCCCCCCCCCCCCCCC(=O)O)C(=O)O)C(=O)N[C@@H](CC(N)=O)C(=O)N[C@@H]([C@@H](C)O)C(=O)N[C@@H](C)C(=O)N[C@@H]([C@@H](C)O)C(=O)N1)[C@@H](C)O)C(=O)N1CCC[C@H]1C(=O)N[C@@H](CO)C(=O)N[C@@H](CO)C(=O)N[C@H](C(=O)N1CCC[C@H]1C(=O)N[C@H](C(=O)NCC(=O)N[C@@H](CO)C(=O)N[C@@H](Cc1c[nH]cn1)C(=O)N[C@H](C(=O)N[C@@H](Cc1ccc(O)cc1)C(N)=O)[C@@H](C)O)C(C)C)[C@@H](C)O
notes: also called compound 57
Take B4: the IC50 stood at 15.3 nM.

B5: N^ε1-[2-[2-[2-[[(4S)-4-carboxy-4-(19-carboxynonadecanoylamino)butanoyl]amino]ethoxy]ethoxy]acetyl]-[Arg17,Pro21,Pro27,Pro34,His35]-h-amylin (peptide)
peptide: K([AEEA-γGlu-C20 diacid])CNTATCATQRLANFLRHSSPNFGAIPSSTNVGPHTY-NH2
modifications: disulfide 2-7; N-terminus assumed
SMILES: CC[C@H](C)[C@H](NC(=O)[C@H](C)NC(=O)CNC(=O)[C@H](Cc1ccccc1)NC(=O)[C@H](CC(N)=O)NC(=O)[C@@H]1CCCN1C(=O)[C@H](CO)NC(=O)[C@H](CO)NC(=O)[C@H](Cc1c[nH]cn1)NC(=O)[C@H](CCCNC(=N)N)NC(=O)[C@H](CC(C)C)NC(=O)[C@H](Cc1ccccc1)NC(=O)[C@H](CC(N)=O)NC(=O)[C@H](C)NC(=O)[C@H](CC(C)C)NC(=O)[C@H](CCCNC(=N)N)NC(=O)[C@H](CCC(N)=O)NC(=O)[C@@H](NC(=O)[C@H](C)NC(=O)[C@@H]1CSSC[C@H](NC(=O)[C@@H](N)CCCCNC(=O)COCCOCCNC(=O)CC[C@H](NC(=O)CCCCCCCCCCCCCCCCCCC(=O)O)C(=O)O)C(=O)N[C@@H](CC(N)=O)C(=O)N[C@@H]([C@@H](C)O)C(=O)N[C@@H](C)C(=O)N[C@@H]([C@@H](C)O)C(=O)N1)[C@@H](C)O)C(=O)N1CCC[C@H]1C(=O)N[C@@H](CO)C(=O)N[C@@H](CO)C(=O)N[C@H](C(=O)N[C@@H](CC(N)=O)C(=O)N[C@H](C(=O)NCC(=O)N1CCC[C@H]1C(=O)N[C@@H](Cc1c[nH]cn1)C(=O)N[C@H](C(=O)N[C@@H](Cc1ccc(O)cc1)C(N)=O)[C@@H](C)O)C(C)C)[C@@H](C)O
notes: also called compound 58
As for B5, the IC50 was found to be 9.63 nM.

B6: N^ε1-[2-[2-[2-[[(4S)-4-carboxy-4-(19-carboxynonadecanoylamino)butanoyl]amino]ethoxy]ethoxy]acetyl]-[His14,Arg17,Pro21,Pro27,Pro31]-h-amylin (peptide)
peptide: K([AEEA-γGlu-C20 diacid])CNTATCATQRLAHFLRHSSPNFGAIPSSTPVGSNTY-NH2
modifications: disulfide 2-7; N-terminus assumed
SMILES: CC[C@H](C)[C@H](NC(=O)[C@H](C)NC(=O)CNC(=O)[C@H](Cc1ccccc1)NC(=O)[C@H](CC(N)=O)NC(=O)[C@@H]1CCCN1C(=O)[C@H](CO)NC(=O)[C@H](CO)NC(=O)[C@H](Cc1c[nH]cn1)NC(=O)[C@H](CCCNC(=N)N)NC(=O)[C@H](CC(C)C)NC(=O)[C@H](Cc1ccccc1)NC(=O)[C@H](Cc1c[nH]cn1)NC(=O)[C@H](C)NC(=O)[C@H](CC(C)C)NC(=O)[C@H](CCCNC(=N)N)NC(=O)[C@H](CCC(N)=O)NC(=O)[C@@H](NC(=O)[C@H](C)NC(=O)[C@@H]1CSSC[C@H](NC(=O)[C@@H](N)CCCCNC(=O)COCCOCCNC(=O)CC[C@H](NC(=O)CCCCCCCCCCCCCCCCCCC(=O)O)C(=O)O)C(=O)N[C@@H](CC(N)=O)C(=O)N[C@@H]([C@@H](C)O)C(=O)N[C@@H](C)C(=O)N[C@@H]([C@@H](C)O)C(=O)N1)[C@@H](C)O)C(=O)N1CCC[C@H]1C(=O)N[C@@H](CO)C(=O)N[C@@H](CO)C(=O)N[C@H](C(=O)N1CCC[C@H]1C(=O)N[C@H](C(=O)NCC(=O)N[C@@H](CO)C(=O)N[C@@H](CC(N)=O)C(=O)N[C@H](C(=O)N[C@@H](Cc1ccc(O)cc1)C(N)=O)[C@@H](C)O)C(C)C)[C@@H](C)O
notes: also called compound 61
For the molecule B6, the half-maximal inhibitory concentration (IC50) was 8.11 nM.

As a reminder, the IC50 is the concentration that gives 50% inhibition.

Values taken from US20140087995A1 (published 2014).
